Source: PMC4739766 (eLife, 2015)

Key:
RhoA (Homo sapiens) = RhoA (Homo sapiens) (UniProt P61586); settings: cited from earlier work
[1] = target: human p75^NTR death domain (330–427) (human) (UniProt P08138); test: SPR; p75NTR DD-His captured on NTA sensor chip via Ni2+; BIAcore T200, 22°C; 10 mM HEPES, 50 mM NaCl, 0.005% Surfactant P20, 0.02% BSA, pH 7.0; kinetic analysis, one binding site model
[2] = target: T1, human p75^NTR death domain (330–427) (human), P08138; test: dynamic light scattering; p75NTR DD ~0.2 mM in phosphate buffer, pH 7.0, 22°C; apparent hydrodynamic radius; settings: remark: other sources report otherwise
T1 chain: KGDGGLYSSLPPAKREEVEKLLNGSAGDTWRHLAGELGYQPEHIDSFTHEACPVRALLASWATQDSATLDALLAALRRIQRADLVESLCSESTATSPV

human RhoGDI (2–204) = target: T2, human RhoGDI (2–204) (human, UniProt P52565 2-204); test: SPR; p75NTR DD-His captured on NTA sensor chip via Ni2+; BIAcore T200, 22°C; 10 mM HEPES, 50 mM NaCl, 0.005% Surfactant P20, 0.02% BSA, pH 7.0; kinetic analysis, one binding site model; settings: both partners purified
T2 construct: 15N- or 13C,15N-labelled in some NMR samples; source: E. coli SoluBL21 (DE3), purified (Ni-NTA, gel filtration Superdex 75 and/or ion exchange)
T2 sequence (looked up): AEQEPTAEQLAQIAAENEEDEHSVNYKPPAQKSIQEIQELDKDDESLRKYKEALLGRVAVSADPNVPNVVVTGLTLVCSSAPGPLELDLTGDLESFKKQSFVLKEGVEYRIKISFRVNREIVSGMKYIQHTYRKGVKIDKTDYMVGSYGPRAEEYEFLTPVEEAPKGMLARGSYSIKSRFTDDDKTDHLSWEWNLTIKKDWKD

[3] = target: T3, human RIP2 CARD (434–539) (human, UniProt O43353 434-539); test: as above; settings: both partners purified
T3 construct: RIP2 kinase, human, caspase recruitment domain with C-terminal tail, residues 434-539; The results speak of a C-terminal tail Leu524-Met540 and of 107 amino acids, the methods of residues 434-539; also called RIP2 CARD (including C-terminal tail); source: E. coli SoluBL21 (DE3), purified (Ni-NTA, gel filtration Superdex 75 and/or ion exchange)

[4] = target: T4, p75^NTR DD tagged with EGFP(A206K) in its C-terminus (human); test: FRET or BRET; homo-FRET fluorescence anisotropy of p75NTR DD-EGFP diluted serially in 50 mM phosphate buffer pH 7.0, room temperature; fit to a monomer-dimer equilibrium; apparent; dimer to monomers; settings: remark: other sources report otherwise
T4 chain: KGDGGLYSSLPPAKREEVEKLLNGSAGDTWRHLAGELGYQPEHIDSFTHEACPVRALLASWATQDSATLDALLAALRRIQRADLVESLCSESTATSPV

T3 sequence (O43353 434-539): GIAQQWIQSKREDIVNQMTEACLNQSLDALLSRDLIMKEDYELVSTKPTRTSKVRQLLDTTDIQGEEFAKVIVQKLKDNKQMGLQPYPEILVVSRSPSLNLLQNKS
Chain of RhoA (Homo sapiens) (P61586 1-190): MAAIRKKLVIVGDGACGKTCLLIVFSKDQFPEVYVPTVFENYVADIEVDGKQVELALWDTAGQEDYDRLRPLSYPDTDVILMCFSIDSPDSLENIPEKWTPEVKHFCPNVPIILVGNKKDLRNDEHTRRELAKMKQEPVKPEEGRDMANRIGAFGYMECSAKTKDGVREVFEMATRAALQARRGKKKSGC

Question: Which Kd (RhoA (Homo sapiens)) does the source give for RhoGDI (from UniProt P52565) here?
Answer: 170 nM

Question: For “RIP2 CARD ΔC mutant lacking the C-terminal tail (domain or fragment)”, which Kd [1] is on record?
Answer: 58.7 nM

B1: human p75^NTR death domain (330–427), P08138 330-427 (domain or fragment)
chain: KGDGGLYSSLPPAKREEVEKLLNGSAGDTWRHLAGELGYQPEHIDSFTHEACPVRALLASWATQDSATLDALLAALRRIQRADLVESLCSESTATSPV
Question: Which stoichiometry N [2] does the source give for B1 here?
Answer: 2

B2: human p75^NTR death domain (330–427) (domain or fragment, UniProt P08138 330-427, looked up)
chain: KGDGGLYSSLPPAKREEVEKLLNGSAGDTWRHLAGELGYQPEHIDSFTHEACPVRALLASWATQDSATLDALLAALRRIQRADLVESLCSESTATSPV
notes: p75 neurotrophin receptor (NGFR, TNFRSF16), human, death domain, residues 330-427; 15N- or 13C,15N-labelled in some NMR samples; Monomer or dimer depending on the buffer; also called p75^NTR DD; DD; source: E. coli SoluBL21 (DE3), purified (Ni-NTA, gel filtration Superdex 75 and/or ion exchange)
Question: Which Kd (human RhoGDI (2–204)) does the source give for B2 here?
Answer: 827 ± 338 nM

Question: And the koff (human RhoGDI (2–204))?
Answer: 0.05 s⁻¹

Question: What about the kon (human RhoGDI (2–204)) of the same molecule?
Answer: 60000 ± 10000 M⁻¹ s⁻¹

Question: What about the Kd [3] of the same molecule?
Answer: 4.67 ± 0.7 nM

Question: And the koff [3]?
Answer: 0.00332 s⁻¹

Question: What about the kon [3] of the same molecule?
Answer: 720000 ± 340000 M⁻¹ s⁻¹

B3: p75^NTR DD tagged with EGFP(A206K) in its C-terminus (domain or fragment)
chain: KGDGGLYSSLPPAKREEVEKLLNGSAGDTWRHLAGELGYQPEHIDSFTHEACPVRALLASWATQDSATLDALLAALRRIQRADLVESLCSESTATSPV
modifications: here or on the partner: C-terminal EGFP(A206K) carrier left out; limits of this fusion are not given, so the paper's own DD construct (330-427) is used / C-terminal EGFP(A206K) carrier left out; limits of this fusion are n
Question: Which Kd [4] does the source give for B3 here?
Answer: 49000 nM
